The values below come from patent US20240101645A1 (HENRY M JACKSON FOUNDATION FOR THE ADVANCEMENT OF MILITARY …, published 2024).

Test [1] deals with T1, HCoV-OC43 spike antigens (bead panel) (HCoV-OC43, UniProt P36334 14-1297).
T1 sequence: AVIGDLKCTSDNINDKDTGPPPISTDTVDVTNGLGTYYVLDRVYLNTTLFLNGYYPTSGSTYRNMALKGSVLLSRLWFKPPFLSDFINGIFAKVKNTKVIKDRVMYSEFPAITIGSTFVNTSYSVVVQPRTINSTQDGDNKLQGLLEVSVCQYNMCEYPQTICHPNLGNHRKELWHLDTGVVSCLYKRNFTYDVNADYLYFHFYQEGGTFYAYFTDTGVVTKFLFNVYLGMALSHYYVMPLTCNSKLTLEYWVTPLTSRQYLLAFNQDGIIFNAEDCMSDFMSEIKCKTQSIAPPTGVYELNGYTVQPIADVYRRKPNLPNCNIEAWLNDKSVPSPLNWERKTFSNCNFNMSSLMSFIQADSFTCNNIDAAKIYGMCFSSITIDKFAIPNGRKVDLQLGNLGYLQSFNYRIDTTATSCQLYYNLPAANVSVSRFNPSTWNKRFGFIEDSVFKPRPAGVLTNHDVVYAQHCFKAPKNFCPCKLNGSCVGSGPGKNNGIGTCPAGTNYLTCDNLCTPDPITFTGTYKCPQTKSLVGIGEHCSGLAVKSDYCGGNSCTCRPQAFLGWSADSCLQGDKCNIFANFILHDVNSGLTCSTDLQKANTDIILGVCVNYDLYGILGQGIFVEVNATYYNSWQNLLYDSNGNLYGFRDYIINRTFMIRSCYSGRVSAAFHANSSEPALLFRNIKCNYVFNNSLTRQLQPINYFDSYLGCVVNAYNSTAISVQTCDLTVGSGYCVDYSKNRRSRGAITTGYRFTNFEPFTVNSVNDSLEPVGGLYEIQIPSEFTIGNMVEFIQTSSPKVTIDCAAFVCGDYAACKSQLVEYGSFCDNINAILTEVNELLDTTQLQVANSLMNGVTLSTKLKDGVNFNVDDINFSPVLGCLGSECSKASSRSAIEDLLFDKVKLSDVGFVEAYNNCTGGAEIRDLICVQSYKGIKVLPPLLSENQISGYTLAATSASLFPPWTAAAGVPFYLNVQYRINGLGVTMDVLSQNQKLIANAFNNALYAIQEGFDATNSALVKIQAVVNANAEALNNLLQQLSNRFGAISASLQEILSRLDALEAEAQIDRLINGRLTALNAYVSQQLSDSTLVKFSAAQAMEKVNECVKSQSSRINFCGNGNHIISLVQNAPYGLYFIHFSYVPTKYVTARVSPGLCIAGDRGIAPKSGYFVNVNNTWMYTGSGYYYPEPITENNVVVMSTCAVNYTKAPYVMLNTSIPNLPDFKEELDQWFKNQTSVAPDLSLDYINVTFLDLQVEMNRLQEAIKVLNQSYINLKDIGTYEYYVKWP
The experiment in a line: multiplex bead assay.

Test [2] concerns the target T2, HCoV-NL63 spike antigens (bead panel) (HCoV-NL63, UniProt Q6Q1S2 19-1296).
T2 sequence: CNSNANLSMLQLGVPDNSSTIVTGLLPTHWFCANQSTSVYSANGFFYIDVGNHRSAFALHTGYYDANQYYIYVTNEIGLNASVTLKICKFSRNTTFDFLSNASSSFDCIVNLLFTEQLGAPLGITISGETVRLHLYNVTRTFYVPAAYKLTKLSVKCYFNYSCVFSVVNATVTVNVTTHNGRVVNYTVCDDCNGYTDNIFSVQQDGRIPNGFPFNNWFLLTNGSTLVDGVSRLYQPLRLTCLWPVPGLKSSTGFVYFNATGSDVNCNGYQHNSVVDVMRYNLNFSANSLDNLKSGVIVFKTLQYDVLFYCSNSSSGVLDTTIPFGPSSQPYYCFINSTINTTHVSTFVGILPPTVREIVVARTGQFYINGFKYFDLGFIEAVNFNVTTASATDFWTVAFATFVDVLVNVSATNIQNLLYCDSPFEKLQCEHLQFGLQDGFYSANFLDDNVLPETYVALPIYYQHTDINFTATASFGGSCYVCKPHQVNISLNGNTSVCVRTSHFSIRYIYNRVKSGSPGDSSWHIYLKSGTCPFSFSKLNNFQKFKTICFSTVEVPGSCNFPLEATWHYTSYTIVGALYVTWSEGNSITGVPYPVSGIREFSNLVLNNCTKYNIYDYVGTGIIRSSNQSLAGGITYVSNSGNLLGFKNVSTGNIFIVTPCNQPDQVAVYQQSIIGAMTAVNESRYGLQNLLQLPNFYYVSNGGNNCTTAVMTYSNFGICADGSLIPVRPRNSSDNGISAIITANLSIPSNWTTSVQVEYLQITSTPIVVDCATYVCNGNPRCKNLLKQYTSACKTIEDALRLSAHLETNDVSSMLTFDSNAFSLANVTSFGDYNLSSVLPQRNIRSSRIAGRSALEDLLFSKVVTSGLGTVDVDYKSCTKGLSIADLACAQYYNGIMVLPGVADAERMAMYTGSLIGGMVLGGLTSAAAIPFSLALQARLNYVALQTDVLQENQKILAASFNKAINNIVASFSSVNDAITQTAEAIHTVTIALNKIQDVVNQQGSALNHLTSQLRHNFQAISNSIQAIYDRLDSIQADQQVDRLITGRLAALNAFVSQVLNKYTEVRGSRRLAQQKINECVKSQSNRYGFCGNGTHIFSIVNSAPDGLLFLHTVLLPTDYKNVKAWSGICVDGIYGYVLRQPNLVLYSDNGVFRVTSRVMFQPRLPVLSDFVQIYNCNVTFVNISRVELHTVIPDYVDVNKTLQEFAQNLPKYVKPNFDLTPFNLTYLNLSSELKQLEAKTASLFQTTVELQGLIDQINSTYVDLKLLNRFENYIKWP
As to the kind of experiment: multiplex bead assay.

Test [3] addresses SARS-CoV-1 spike antigens (bead panel) (SARS-CoV-1, UniProt P59594 14-1195). The experiment in a line: multiplex bead assay.
For test [4], the target named is T3, HCoV-229E spike antigens (bead panel) (HCoV-229E, UniProt P15423 16-1115).
T3 sequence: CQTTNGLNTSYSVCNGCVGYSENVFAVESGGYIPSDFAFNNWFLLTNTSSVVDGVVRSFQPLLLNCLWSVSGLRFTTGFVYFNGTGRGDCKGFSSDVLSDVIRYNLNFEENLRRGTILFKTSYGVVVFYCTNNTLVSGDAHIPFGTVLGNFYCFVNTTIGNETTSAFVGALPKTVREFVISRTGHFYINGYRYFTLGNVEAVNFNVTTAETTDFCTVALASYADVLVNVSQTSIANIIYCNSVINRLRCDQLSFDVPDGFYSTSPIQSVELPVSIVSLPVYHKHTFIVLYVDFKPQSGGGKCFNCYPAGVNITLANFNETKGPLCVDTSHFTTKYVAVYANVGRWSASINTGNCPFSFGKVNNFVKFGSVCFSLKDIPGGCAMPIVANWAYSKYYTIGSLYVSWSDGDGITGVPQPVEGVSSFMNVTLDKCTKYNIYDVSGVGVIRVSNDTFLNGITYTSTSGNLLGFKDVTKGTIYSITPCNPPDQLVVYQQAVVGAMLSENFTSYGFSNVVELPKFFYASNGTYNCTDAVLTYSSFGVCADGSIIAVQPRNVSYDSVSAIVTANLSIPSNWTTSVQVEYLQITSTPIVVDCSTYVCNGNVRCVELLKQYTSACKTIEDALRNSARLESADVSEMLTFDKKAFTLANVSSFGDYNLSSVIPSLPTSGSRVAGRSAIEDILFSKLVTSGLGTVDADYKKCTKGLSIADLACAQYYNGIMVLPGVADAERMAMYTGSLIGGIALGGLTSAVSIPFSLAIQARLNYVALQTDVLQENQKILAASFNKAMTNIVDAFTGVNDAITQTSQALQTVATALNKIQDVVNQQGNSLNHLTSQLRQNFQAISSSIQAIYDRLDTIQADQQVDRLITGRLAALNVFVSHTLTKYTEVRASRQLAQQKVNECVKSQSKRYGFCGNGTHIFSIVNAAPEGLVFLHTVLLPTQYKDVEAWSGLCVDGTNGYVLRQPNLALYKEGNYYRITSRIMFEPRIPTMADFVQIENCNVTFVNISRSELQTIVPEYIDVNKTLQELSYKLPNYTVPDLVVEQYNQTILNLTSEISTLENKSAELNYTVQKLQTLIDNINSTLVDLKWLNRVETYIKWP
As to the kind of experiment: multiplex bead assay.

For test [5], the target named is SARS-CoV-2 S on pseudovirions (Wuhan Hu-1 / IL1/2020, last 18 amino acids removed) (SARS-CoV-2, UniProt P0DTC2 14-1273). As to the kind of experiment: cell-based or functional assay.

B1: COV_1007 (antibody, V domains shown)
VH: QVTLKESGPVLVKPTETLTLTCTVSGFSLINARVGVSWIRQPPGKALDWLAHIFSSDEKSYSTSLKSRLTISKDTSKSQVVLTMTNMDPVDTATYYCARIRWLSSYYFDYWGQGTLVTVSS
VL: DIRMTQSPSSVSASVGDRVTITCRASQGISNWLAWYQQKPGKAPKLLIYAASSLQSGVPSRFSGGGSGTDFTLTISSLQPEDFATYYCQQANSFLLTFGGGTKVEIK
notes: human IgG1
Turning to B1, the binding result in test [1], in test [2], in test [3] and in test [4] was “no binding” throughout. For the same molecule, in test [5], the “Mean IC50, pSV neutralization” value was 9 µg/ml. The “Mean IC80, pSV neutralization” value in test [5] was at least 25 µg/ml.
